T1: Cynomolgus monkey CD1a protein (Cynomolgus monkey)
T1 chain: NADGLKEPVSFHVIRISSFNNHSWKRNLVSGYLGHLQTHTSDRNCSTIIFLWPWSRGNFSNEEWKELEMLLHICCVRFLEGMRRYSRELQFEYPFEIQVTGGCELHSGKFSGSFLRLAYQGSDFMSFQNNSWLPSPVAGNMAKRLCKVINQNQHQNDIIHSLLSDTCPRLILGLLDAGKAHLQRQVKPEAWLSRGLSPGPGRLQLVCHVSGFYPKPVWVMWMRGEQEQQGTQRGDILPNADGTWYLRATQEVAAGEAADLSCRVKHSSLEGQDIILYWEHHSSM


Experiments:
[1] = target: T2, human CD1a protein (pool B) (human, UniProt P06126 18-295, limits assumed); assay: ELISA, 0.316 µg/ml antibody
T2 construct: Recombinant protein of the ELISA (coated) and the Biacore T200 titration; whole entry named; also called human CD1a pool B; full length CD1a
T2 sequence (P06126 18-295 limits assumed): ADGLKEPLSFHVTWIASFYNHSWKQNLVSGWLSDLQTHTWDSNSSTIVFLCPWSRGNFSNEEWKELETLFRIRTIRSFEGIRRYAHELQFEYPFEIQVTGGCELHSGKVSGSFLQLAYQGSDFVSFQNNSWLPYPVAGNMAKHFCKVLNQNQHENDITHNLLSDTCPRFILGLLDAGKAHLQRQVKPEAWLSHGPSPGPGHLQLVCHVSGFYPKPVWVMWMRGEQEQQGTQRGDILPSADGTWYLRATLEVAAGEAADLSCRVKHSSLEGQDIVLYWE
Procedure: (§1) CD1a-specific antibodies were identified by ELISA. […] 20 μl/well of peroxidase-conjugated goat anti-species IgG Fc-specific F(ab′)2 fragment (Jackson ImmunoResearch), diluted 1:5000 in block buffer was added and incubated at room temperature for 1 hour, followed by washing with wash buffer.
(§2) The antibodies were titrated through a dilution series and compared to a control rabbit IgG antibody.

[2] = target: T3, human CD1a expressed on cells (human, UniProt P06126 17-327; P61769 21-119); assay: flow cytometry, MOLT4 cells, 3.16 µg/ml antibody
T3 construct: also called HEK - CD1a; C1R - CD1a
Procedure: (§3) CD1a-specific antibodies were identified by flow cytometry. Binding to proteins expressed on HEK, C1R and MOLT4 cell lines was assessed. […] The C1R-CD1a, C1R-empty vector and MOLT4 cell lines were washed in 1×PBS on the day required. All cell lines were counted and resuspended in 1×PBS and then stained for 30 minutes at 37° C. using the DiI or DiO cellular stains (Invitrogen). Cells were washed with flow cytometry buffer (1% bovine serum albumin, 2 mM EDTA and 0.1% sodium azide in PBS) before mixing 2 DiI-stained and DiO-stained populations together. The cells (20 μl/well) were then added to dilutions of antibody sample (B cell culture supernatant, TAP supernatant, clone supernatant, purified antibody solution) (20 μl/well) and incubated for 1 hour at 4° C. in a flow cytometry assay plate, before being washed with flow cytometry buffer. 10 μl/well of Alexafluor647-conjugated goat anti-species IgG Fc-specific F(ab′)2 fragment (Jackson ImmunoResearch), diluted 1:2500 in flow cytometry buffer, was added and incubated at 4° C. for 30 minutes, followed by washing with wash buffer. The fluorescence intensity was then measured on an iQue screener PLUS.
(§4) Binding was quantified as fold change in fluorescence intensity geomean over background assessed by flow cytometry.

[3] = target: Chinese variant CD1a protein (human) (UniProt P06126); assay: ELISA, 0.1 µg/ml antibody
Chinese variant CD1a protein (human), sequence (P06126 18-295, stated change not applied): as the sequence (P06126 18-295 limits assumed) above

[4] = target: T3, human CD1a expressed on cells; assay: flow cytometry, C1R cells, 31.6 µg/ml antibody
Procedure: (§5) Binding to proteins expressed on HEK, C1R and MOLT4 cell lines was assessed. […] The C1R-CD1a, C1R-empty vector and MOLT4 cell lines were washed in 1×PBS on the day required. All cell lines were counted and resuspended in 1×PBS and then stained for 30 minutes at 37° C. using the DiI or DiO cellular stains (Invitrogen). Cells were washed with flow cytometry buffer (1% bovine serum albumin, 2 mM EDTA and 0.1% sodium azide in PBS) before mixing 2 DiI-stained and DiO-stained populations together. The cells (20 μl/well) were then added to dilutions of antibody sample (B cell culture supernatant, TAP supernatant, clone supernatant, purified antibody solution) (20 μl/well) and incubated for 1 hour at 4° C. in a flow cytometry assay plate, before being washed with flow cytometry buffer. 10 μl/well of Alexafluor647-conjugated goat anti-species IgG Fc-specific F(ab′)2 fragment (Jackson ImmunoResearch), diluted 1:2500 in flow cytometry buffer, was added and incubated at 4° C. for 30 minutes, followed by washing with wash buffer. The fluorescence intensity was then measured on an iQue screener PLUS.
as §4

[5] = target: T3, human CD1a expressed on cells; assay: flow cytometry, C1R cells, 3.16 µg/ml antibody
Procedure: as §5, §4

[6] = target: T3, human CD1a expressed on cells; assay: flow cytometry, MOLT4 cells, 100 µg/ml antibody
Procedure: as §3, §4

[7] = target: T4, chimeric CD1a pool B protein [human CD1a lipid binding domain, mouse CD1d Ig domain] (human; mouse, UniProt P06126 18-201; P11609 205-297, limits assumed); assay: ELISA, 100 µg/ml antibody
T4 sequence (P06126 other isoform, or with tags, fused parts or gaps mutant limits assumed): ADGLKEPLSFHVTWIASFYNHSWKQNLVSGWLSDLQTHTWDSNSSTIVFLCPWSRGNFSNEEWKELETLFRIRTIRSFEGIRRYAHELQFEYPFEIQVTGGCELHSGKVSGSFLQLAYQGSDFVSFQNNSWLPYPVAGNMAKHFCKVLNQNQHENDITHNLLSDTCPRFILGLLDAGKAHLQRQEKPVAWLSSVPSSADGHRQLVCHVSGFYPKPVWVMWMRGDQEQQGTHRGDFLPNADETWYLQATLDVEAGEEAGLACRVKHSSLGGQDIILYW
Procedure: as §1
(§6) The antibodies were titrated through a dilution series and compared to a control rabbit IgG antibody. […] Data shown for purified antibodies.

[8] = target: T4, chimeric CD1a pool B protein [human …; assay: ELISA, 0.316 µg/ml antibody
Procedure: as §1, §6

[9] = target: T4, chimeric CD1a pool B protein [human …; assay: ELISA, 3.16 µg/ml antibody
Procedure: as §1, §6

[10] = target: T4, chimeric CD1a pool B protein [human …; assay: ELISA, 0.0316 µg/ml antibody
Procedure: as §1, §6

[11] = target: T2, human CD1a protein (pool B); assay: SPR (Biacore T200), antibody captured, human CD1a titrated, 1:1 binding model
Procedure: The affinity of the purified antibodies to human CD1a was assessed using a Biacore T200 instrument (GE Healthcare) by capturing the antibody to an immobilized anti-species IgG F(ab′)2 followed by titration of human CD1a. Affinipure Goat anti-species IgG-F(ab′)2 fragment specific (Jackson ImmunoResearch) was immobilized on a CM5 Sensor Chip (GE Healthcare) via amine coupling chemistry to a capture level of ˜5000 response units (RUs). HBS-EP+ buffer (10 mM HEPES pH 7.4, 0.15 M NaCl, 3 mM EDTA, 0.05% Surfactant P20, GE Healthcare) was used as the running buffer with a flow rate of 10 μL/min. A 10 μL injection of test antibody at 0.5 μg/mL was used for capture by the immobilized Goat Anti-species Fab.
The surface was regenerated between cycles by injection of 2×10 μL of 40 mM HCl, interspersed by a 10 μL injection of 5 mM NaOH at flowrate of 10 μL/min. Background subtraction binding curves were analyzed using the Biacore T200 evaluation software following standard procedures. Kinetic parameters were determined from the fitting algorithm. This assay was performed at the clone supernatant and purified antibody stage.
Affinity was required to be <100 nM to be considered for progression.

[12] = target: T5, Cynomolgus monkey CD1a expressed on HEK-293 cells (Cynomolgus monkey, UniProt A0A2K5VQ68 17-326); assay: flow cytometry, HEK-293 cells, 1 µg/ml antibody
T5 sequence (A0A2K5VQ68 entry or part of it): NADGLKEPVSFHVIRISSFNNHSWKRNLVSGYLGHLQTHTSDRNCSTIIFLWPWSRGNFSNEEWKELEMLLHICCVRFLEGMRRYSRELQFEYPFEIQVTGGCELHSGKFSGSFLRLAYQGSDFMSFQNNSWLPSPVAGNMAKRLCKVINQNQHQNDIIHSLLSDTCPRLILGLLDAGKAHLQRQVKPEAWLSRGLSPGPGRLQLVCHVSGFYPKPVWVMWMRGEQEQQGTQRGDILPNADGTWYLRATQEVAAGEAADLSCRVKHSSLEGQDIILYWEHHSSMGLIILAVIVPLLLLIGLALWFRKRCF
Procedure: as §5, §4

[13] = target: Chinese variant CD1a protein (human) (UniProt P06126); assay: ELISA, 10 µg/ml antibody
[14] = target: T1, Cynomolgus monkey CD1a protein; assay: ELISA, 0.01 µg/ml antibody
[15] = target: T2, human CD1a protein (pool B); assay: ELISA, 3.16 µg/ml antibody
Procedure: as §1, §2

[16] = target: T3, human CD1a expressed on cells; assay: flow cytometry, HEK-293 cells, 31.6 µg/ml antibody
Procedure: as §5
(§7) HEK-293 cells were transiently transfected with human CD1a, CD1b, CD1c or CD1d and co-transfected with human β2M.

[17] = target: T6, human CD1b expressed on HEK-293 cells (human, UniProt P29016 18-333; P61769 21-119); assay: flow cytometry, HEK-293 cells, 31.6 µg/ml antibody
T6 construct: also called HEK - CD1b
Procedure: as §5, §7

[18] = target: T7, human CD1d expressed on HEK-293 cells (human, UniProt P15813 20-335; P61769 21-119); assay: flow cytometry, HEK-293 cells, 31.6 µg/ml antibody
T7 construct: also called HEK - CD1d
Procedure: as §5, §7

[19] = target: T8, human CD1c expressed on HEK-293 cells (human, UniProt P29017 18-333; P61769 21-119); assay: flow cytometry, HEK-293 cells, 31.6 µg/ml antibody
T8 construct: also called HEK - CD1c
Procedure: as §5, §7

[20] = target: T2, human CD1a protein (pool B); assay: ELISA, 0.0316 µg/ml antibody
Procedure: as §1, §2

[21] = target: T3, human CD1a expressed on cells; assay: flow cytometry, HEK-293 cells, 0.316 µg/ml antibody
Procedure: as §5, §7

[22] = target: T6, human CD1b expressed on HEK-293 cells; assay: as above
Procedure: as §5, §7

[23] = target: T7, human CD1d expressed on HEK-293 cells; assay: as above
Procedure: as §5, §7

[24] = target: T8, human CD1c expressed on HEK-293 cells; assay: as above
Procedure: as §5, §7

[25] = target: T5, Cynomolgus monkey CD1a expressed on …; assay: flow cytometry, HEK-293 cells, 0.1 µg/ml antibody
Procedure: as §5, §4

Binder | Optical Density (OD) [1] [OD] | Fluorescence Intensity Geomean (normalized to background) [2] [fold over background] | Optical Density (OD) [3] [OD] | Fluorescence Intensity Geomean (normalized to background) [4] [fold over background] | Fluorescence Intensity Geomean (normalized to background) [5] [fold over background] | Fluorescence Intensity Geomean (normalized to background) [6] [fold over background] | Optical Density (OD) [7] [OD] | Optical Density (OD) [8] [OD] | Optical Density (OD) [9] [OD] | Optical Density (OD) [10] [OD] | Kd [11] [nM] | Optical Density (OD) [13] [OD] | Optical Density (OD) [14] [OD] | Optical Density (OD) [15] [OD] | Fluorescence Intensity Geomean (normalized to background) [16] [fold over background] | Fluorescence Intensity Geomean (normalized to background) [17] [fold over background] | Fluorescence Intensity Geomean (normalized to background) [18] [fold over background] | Fluorescence Intensity Geomean (normalized to background) [19] [fold over background] | Optical Density (OD) [20] [OD] | Fluorescence Intensity Geomean (normalized to background) [21] [fold over background] | also measured
77A (VR11851) (antibody, V domains shown, also called OX77a; antibody 77a) VH: QSVEESGGRLVTPGTPLTLTCTVSGFSLSSYAMSWVRQAPGKGLEWIGIISSSGTTYYASWAKGRFTISKTSTTVDLKITSPTTEDTATYFCARVDYYSSGWGGLWGPGTLVTVSS VL: AVEMTQTPASMSAAVGGTVTIKCQASEDIYSNLAWYQQKPGQPPKLLIYGASTLASGVPSRFKGSGSGTEYTLTISGVQCDDAATYYCQCTYDTSSYGNTFGGGTEMVVE | 1.39 | 7.4 | 1.05 | 1.3 | 4.2 | 0.8 | 1.27 | 1.28 | 1.28 | 1.09 | 0.24 | 0.99 | 0.1 | 1.33 | 8.2 | 1 | 1 | 0.9 | 1.25 | 58.6 | koff [11]: 0.000113 s⁻¹; kon [11]: 469000 M⁻¹ s⁻¹; Fluorescence Intensity Geomean (normalized to background) [12]: 10.6 fold over background; Fluorescence Intensity Geomean (normalized to background) [22]: 1.1 fold over background; Fluorescence Intensity Geomean (normalized to background) [23]: 1 fold over background; Fluorescence Intensity Geomean (normalized to background) [24]: 1 fold over background; Fluorescence Intensity Geomean (normalized to background) [25]: 5.7 fold over background
111 (VR12113) (antibody, V domains shown, also called OX111) VH: QSVEESGGRLVTPGTPLTLTCTASGFSLSTYAMSWVRQAPGKGLEWIGIISSSGSTYYASWAKGRFTISKTSTTVDLKITSPTTEDTATYFCARETWYWLDLWGQGTLVTVSS VL: AVEMTQTPASVSAAVGGTVTINCQASEDIYSNLAWYQQKPGQPPKLLIYGASTLASGVPSRFKGSGSGTEYTLTISGVQCDDAATYYCQCAYDSSSYGTPFGGGTEVVVK | 1.04 | 18.9 | 1.52 | 7 | 15.6 | 3.9 | 1.27 | 1.32 | 1.41 | 1.19 | ≤ 0.0312 | 1.41 | 0.48 | 1.13 | 6.3 | 1 | 1 | 1 | 1.1 | 30.8 | koff [11]: < 1e-05 s⁻¹; kon [11]: 321000 M⁻¹ s⁻¹; Fluorescence Intensity Geomean (normalized to background) [12]: 12.9 fold over background; Fluorescence Intensity Geomean (normalized to background) [22]: 1 fold over background; Fluorescence Intensity Geomean (normalized to background) [23]: 0.9 fold over background; Fluorescence Intensity Geomean (normalized to background) [24]: 1 fold over background; Fluorescence Intensity Geomean (normalized to background) [25]: 25.8 fold over background
110 (VR12112) (antibody, V domains shown, also called OX110; antibody 110) VH: QSVEESGGRLVTPGTPLTLTCTVSGFSLSSYAMIWVRQAPGKGLEWIGIINSSDNTHYATWAKGRFTISKTSTTVDLKITSPTTEDTATYFCARDPYDYGYGWYFDLWGPGTLVTVSS VL: AQVLTQTPSPVSAAVGGTVTINCQASQSVFNNKNLAWYQQKPGQPPKLLIYKASTLASGVSSRFKGSGSGTQFALTISGVQCDDAATYYCQGEFSCSSTDCVTFGGGTEVVVK | 1.18 | 22.6 | 1.57 | 6.2 | 15.2 | 5.2 | 1.4 | 1.24 | 1.53 | 0.73 | 1.97 | 1.75 | 0.22 | 1.27 | 10.9 | 1.1 | 1.1 | 1 | 0.81 | 38.3 | Fluorescence Intensity Geomean (normalized to background) [22]: 1 fold over background; Fluorescence Intensity Geomean (normalized to background) [23]: 1 fold over background; Fluorescence Intensity Geomean (normalized to background) [24]: 0.9 fold over background; Fluorescence Intensity Geomean (normalized to background) [25]: 3.3 fold over background
